In patent publication US20140363495A1 (US Dept. of Health and Human Services, published 2014):

B1: VNTR-2 (peptide)
peptide: STAPPAHGV
notes: Synthetic 9-mer; also called pVNTR2; VNTR-2 (native)
B2: VNTR-4 (peptide)
peptide: APDTRPAPG
notes: Synthetic 9-mer; also called pVNTR4; VNTR-4 (native)
B3: VNTR-5 (agonist) (peptide)
peptide: YLDTRPAPV
notes: Synthetic analog with substitutions at positions 1, 2 and 9; also called pVNTR5; pVNTR-5
B4: P1172 (peptide)
peptide: ALAIVYLIAL
notes: Synthetic 10-mer, purity >90%; also called Native 432

These binders were tested against T1, HLA-A2 molecules on T2A2 cells (human) (assay: flow cytometry, upregulation of HLA-A2 on T2A2 cells, peptide 25 µg/mL).
T1 construct: whole, on cells; also called class I molecules
Experimental: *Peptides were used at a concentration of 25 μg/mL. ^{#}Results expressed as mean fluorescence intensity (MFI).

T2A2 Binding (MFI)	Binder
169	STAPPAHNV (Synthetic 9-mer; also called pVNTR1) [VNTR-1]
166	B1
210	B2
647	B3
486	YLAPPAHGV (also called pVNTR3; pVNTR-3) [VNTR-3 (agonist)]

Each binder was assayed against T1, HLA-A2 molecules on T2A2 cells (assay: flow cytometry, upregulation of HLA-A2 on T2A2 cells, peptide 12.5 µg/mL).
Experimental: *Peptides were used at a concentration of 12.5 μg/mL. ^{#}Results expressed as mean fluorescence intensity (MFI). NGEP (P703) peptide is an HLA-A2-binding peptide. CAP-7 peptide is an HLA-A3-binding CEA peptide

T2 Binding (MFI)	Binder
249	B4
245	YLAIVYLIAL [P1172(1Y)]
211	YLIALAVCQC (Synthetic 10-mer) [P1177]
299	YLIALAVCQV [P1177(10V)]
326	SLSYTNPAV (Synthetic 9-mer) [P1240]
342	YLSYTNPAV [P1240(1Y)]
